Earlier results in article PMC4303274.
Read-outs that look alike come from different tables or passages of the source.

How the values were obtained:
CaMKII (Homo sapiens) [1] = target: CaMKII (Homo sapiens) (UniProt Q9UQM7)
[2] = target: neurogranin (Homo sapiens) (UniProt Q92686)
CaMKII (Homo sapiens) [3] = target: CaMKII (Homo sapiens) (UniProt Q9UQM7); remark: listed apart in the source

Chain of CaMKII (Homo sapiens) (Q9UQM7 whole entry): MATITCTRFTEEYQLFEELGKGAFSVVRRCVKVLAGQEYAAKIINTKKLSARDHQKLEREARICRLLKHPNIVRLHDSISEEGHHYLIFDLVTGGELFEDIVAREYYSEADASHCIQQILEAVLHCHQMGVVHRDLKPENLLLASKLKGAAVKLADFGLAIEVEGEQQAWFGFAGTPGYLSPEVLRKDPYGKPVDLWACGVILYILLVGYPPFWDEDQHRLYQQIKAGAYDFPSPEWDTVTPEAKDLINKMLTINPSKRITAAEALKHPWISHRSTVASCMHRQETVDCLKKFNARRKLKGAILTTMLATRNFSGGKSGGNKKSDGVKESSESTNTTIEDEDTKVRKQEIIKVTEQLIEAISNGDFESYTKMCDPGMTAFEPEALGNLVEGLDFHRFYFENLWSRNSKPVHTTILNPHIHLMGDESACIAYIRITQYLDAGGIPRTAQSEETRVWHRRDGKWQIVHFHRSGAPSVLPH
Chain of neurogranin (Homo sapiens) (Q92686 whole entry): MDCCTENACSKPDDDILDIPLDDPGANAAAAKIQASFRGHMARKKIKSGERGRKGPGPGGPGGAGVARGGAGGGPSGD

| Substance | Kd (CaMKII (Homo sapiens) [1]) | Kd [2] | Kd (CaMKII (Homo sapiens) [3]) |
| --- | --- | --- | --- |
| calmodulin C-lobe fragment TR2C (R state) TR2C (from UniProt P0DP23) | 950 nM | 1050 nM | – |
| calmodulin C-lobe fragment TR2C (T state) TR2C (from UniProt P0DP23) | – | – | 88000 nM |
